{"source": "the PETadex activity labels (doi:10.1021/acscatal.9b00568)", "proteins": {"B1": {"name": "unnamed (protein)", "chain": "MNFPRASRLMQAAVLGGLMAVSAAATAQTNPYARGPNPTAASLEASAGPFTVRSFTVSRPSGYGAGTVYYPTNAGGTVGAIAIVPGYTARQSSIKWWGPRLASHGFVVITIDTNSTLDQPSSRSSQQMAALRQVASLNGTSSSPIYGKVDTARMGVMGWSMGGGGSLISAANNPSLKAAAAQAPWDSSTNFSSVTVPTLIFACENDSIAPVNSSALPIYDSMSRNAKQFLEINGGSHSCANSGNSNQALIGKKGVAWMKRFMDNDTRYSTFACENPNSTRVSDFRTANCS"}, "B2": {"name": "unnamed (protein)", "chain": "MNFPRASRLMQAAVLGGLMAVSAAATAQTNPYARGPNPTAASLEASAGPFTVRSFTVSRPSGYGAGTVYYPTNAGGTVGAIAIVPGYTARQSSIKWWGPRLASHGFVVITIDTNSTLDQPSSRSSQQMAALRQVASLNGTSSSPIYGKVDTARMGVMGWSMGGGGSLISAANNPSLKAAASQAPWDSSTNFSSVTVPTLIFACENDSIAPVNSSALPIYDSMSRNAKQFLEINGGSHSCANSGNSNQALIGKKGVAWMKRFMDNDTRYSTFACENPNSTRVSDFRTANCS"}, "B3": {"name": "unnamed (protein)", "chain": "MNFPRASRLMQAAVLGGLMAVSAAATAQTNPYARGPNPTAASLEASAGPFTVRSFTVSRPSGYGAGTVYYPTNAGGTVGAIAIVPGYTARQSSIKWWGPRLASHGFVVITIDTNSTLDQPESRSSQQMAALRQVASLNGTSSSPIYGKVDTARMGVMGWSMGGGGSLISAANNPSLKAAAPQAPWDSSTNFSSVTVPTLIFACENDSIAPVNSSALPIYDSMSRNAKQFLEINGGSHSCANSGNSNQALIGKKGVAWMKRFMDNDTRYSTFACENPNSTRVSDFRTANCS"}, "B4": {"name": "unnamed (protein)", "chain": "MNFPRASRLMQAAVLGGLMAVSAAATAQTNPYARGPNPTAASLEASAGPFTVRSFTVSRPSGYGAGTVYYPTNAGGTVGAIAIVPGYTARQSSIKWWGPRLASHGFVVITIDTNSTLDQPDSRSSQQMAALRQVASLNGTSSSPIYGKVDTARMGVMGWSMGGGGSLISAANNPSLKAAAPQAPWDSSTNFSSVTVPTLIFACENDSIAPVNSSALPIYDSMSRNAKQFLEINGGSHSCANSGNSNQALIGKKGVAWMKRFMDNDTRYSTFACENPNSTRVSDFRTANCS"}, "B5": {"name": "unnamed (protein)", "chain": "MNFPRASRLMQAAVLGGLMAVSAAATAQTNPYARGPNPTAASLEASAGPFTVRSFTVSRPSGYGAGTVYYPTNAGGTVGAIAIVPGYTARQSSIKWWGPRLASHGFVVITIDTNSTLDQPSSRSSQQMAALRQVASLNGTSSSPIYGKVDTARMGVMGWSMGGGGSLISAANNPSLKAAAPQAPWVSSTNFSSVTVPTLIFACENDSIAPVNSSALPIYDSMSRNAKQFLEINGGSHSCANSGNSNQALIGKKGVAWMKRFMDNDTRYSTFACENPNSTRVSDFRTANCS"}, "B6": {"name": "unnamed (protein)", "chain": "MNFPRASRLMQAAVLGGLMAVSAAATAQTNPYARGPNPTAASLEASAGPFTVRSFTVSRPSGYGAGTVYYPTNAGGTVGAIAIVPGYTARQSSIKWWGPRLASHGFVVITIDTNSTLDQPSSRSSQQMAALRQVASLNGTSSSPIYGKVDTARMGVMGWSMGGGGSLISAANNPSLKAAAGQAPWDSSTNFSSVTVPTLIFACENDSIAPVNSSALPIYDSMSRNAKQFLEINGGSHSCANSGNSNQALIGKKGVAWMKRFMDNDTRYSTFACENPNSTRVSDFRTANCS"}, "B7": {"name": "unnamed (protein)", "chain": "MNFPRASRLMQAAVLGGLMAVSAAATAQTNPYARGPNPTAASLEASAGPFTVRSFTVSRPSGYGAGTVYYPTNAGGTVGAIAIVPGYTARQSSIKWWGPRLASHGFVVITIDTNSTLDQPESRSSQQMAALRQVASLNGTSSSPIYGKVDTARMGVMGWSMGGGGSLISAANNPSLKAAAAQAPWHSSTNFSSVTVPTLIFACENDSIAPVNSSALPIYDSMSRNAKQFLEINGGSHSCANSGNSNQALIGKKGVAWMKRFMDNDTRYSTFACENPNSTRVSDFRTANCS"}}, "data": [{"substrate": "PET", "test": "Proxy for plastic degradation [HPLC-UV]", "conditions": "pH 9; 30 °C; 24 h", "units": {"Proxy for plastic degradation": "µM"}, "values": [{"protein": "B1", "Proxy for plastic degradation": 4.2}, {"protein": "B2", "Proxy for plastic degradation": 3.5}, {"protein": "B3", "Proxy for plastic degradation": 10.8}, {"protein": "B4", "Proxy for plastic degradation": 5.3}, {"protein": "B5", "Proxy for plastic degradation": 2.4}, {"protein": "B6", "Proxy for plastic degradation": 2.3}, {"protein": "B7", "Proxy for plastic degradation": 10.6}]}, {"substrate": "PET", "test": "Proxy for plastic degradation [HPLC-UV]", "conditions": "pH 9; 30 °C; 72 h", "units": {"Proxy for plastic degradation": "µM"}, "values": [{"protein": "B1", "Proxy for plastic degradation": 7.8}, {"protein": "B2", "Proxy for plastic degradation": 4.9}, {"protein": "B3", "Proxy for plastic degradation": 19}, {"protein": "B4", "Proxy for plastic degradation": 24.3}, {"protein": "B5", "Proxy for plastic degradation": 4}, {"protein": "B6", "Proxy for plastic degradation": 3.3}, {"protein": "B7", "Proxy for plastic degradation": 13.7}]}, {"substrate": "PET", "test": "Proxy for plastic degradation [HPLC-UV]", "conditions": "pH 9; 40 °C; 24 h", "units": {"Proxy for plastic degradation": "µM"}, "values": [{"protein": "B1", "Proxy for plastic degradation": 7.5}, {"protein": "B2", "Proxy for plastic degradation": 1.9}, {"protein": "B3", "Proxy for plastic degradation": 3.6}, {"protein": "B4", "Proxy for plastic degradation": 2.6}, {"protein": "B5", "Proxy for plastic degradation": 1.9}, {"protein": "B6", "Proxy for plastic degradation": 1.2}, {"protein": "B7", "Proxy for plastic degradation": 13.9}]}, {"substrate": "PET", "test": "Proxy for plastic degradation [HPLC-UV]", "conditions": "pH 9; 40 °C; 72 h", "units": {"Proxy for plastic degradation": "µM"}, "values": [{"protein": "B1", "Proxy for plastic degradation": 7.6}, {"protein": "B2", "Proxy for plastic degradation": 2.2}, {"protein": "B3", "Proxy for plastic degradation": 5.2}, {"protein": "B4", "Proxy for plastic degradation": 7.2}, {"protein": "B5", "Proxy for plastic degradation": 7.1}, {"protein": "B6", "Proxy for plastic degradation": 1.7}, {"protein": "B7", "Proxy for plastic degradation": 19.8}]}]}
